Experiments:
[1] = target: T1, recombinant DbpA full length protein (without signal sequence), Borrelia burgdorferi decorin-binding protein A (Borrelia burgdorferi, UniProt O50917 30-191); assay: Biacore SPR, supernatant over DbpA chip
T1 construct: also called DpbA; DbpA antigen
T1 sequence: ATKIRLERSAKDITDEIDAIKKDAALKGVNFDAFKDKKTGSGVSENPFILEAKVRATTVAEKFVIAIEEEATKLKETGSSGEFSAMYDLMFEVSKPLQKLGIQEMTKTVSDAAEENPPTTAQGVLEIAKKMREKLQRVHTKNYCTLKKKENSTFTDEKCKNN

[2] = target: T1, recombinant DbpA full length protein …; assay: Octet BLI, mAb on anti-mIgG Fc sensor, DbpA 100 nM
[3] = target: T1, recombinant DbpA full length protein …; assay: Biacore SPR (summary table)
[4] = target: T1, recombinant DbpA full length protein …; assay: Octet BLI, DbpA 100 nM (summary table)
[5] = target: T1, recombinant DbpA full length protein …; assay: Biacore SPR, DbpA on CM5 chip

Binder	Kd [1] [pM]	koff [1] [s⁻¹]	kon [1] [M⁻¹ s⁻¹]	Kd [2] [pM]	koff [2] [s⁻¹]	kon [2] [M⁻¹ s⁻¹]	Kd [3] [pM]	Kd [4] [pM]	koff [4] [s⁻¹]	kon [4] [M⁻¹ s⁻¹]	Kd [5] [pM]	koff [5] [s⁻¹]	kon [5] [M⁻¹ s⁻¹]
MAb 6G8 (mouse hybridoma monoclonal antibody) (antibody, Mouse IgG1 kappa, tested as hybridoma culture supernatant; copies: 2 + 2) heavy: QVQLQQPGAELVKPGASVKLSCKASGYTFTRYWMYWVKQRPGRGLEWIGRLDPNSGVTKYNEKFKSKATLTVDKSSSTAYMQLSSLTSEDSAVYYCVRDDSWYFDVWGTGTTVTVSSAKTTPPSVYPLAPGSAAQTNSMVTLGCLVKGYFPEPVTVTWNSGSLSSGVHTFPAVLQSDLYTLSSSVTVPSSTWPSQTVTCNVAHPASSTKVDKKIVPRDCGCKPCICTVPEVSSVFIFPPKPKDVLTITLTPKVTCVVVDISKDDPEVQFSWFVDDVEVHTAQTKPREEQINSTFRSVSELPIMHQDWLNGKEFKCRVNSAAFPAPIEKTISKTKGRPKAPQVYTIPPPKEQMAKDKVSLTCMITNFFPEDITVEWQWNGQPAENYKNTQPIMDTDGSYFVYSKLNVQKSNWEAGNTFTCSVLHEGLHNHHTEKSLSLSPGK light: EIQMTQSPSSMSASLGDRITITCQATQDIVKNLNWYQQKPGKPPSFLIYYATELAEGVPSRFSGSGSGSDYSLTINNLESQDFADYFCLQFYAFPLTFGAGTKLELRRADAAPTVSIFPPSSEQLTSGGASVVCFLNNFYPRDINVKWKIDGSERQNGVLNSWTDQDSKDSTYSMSSTLTLTKDEYERHNSYTCEATHKTSTSPIVKSFNRGEC	0.25	5e-08	200000	976	0.000977	1e+06	0.25	976	0.000977	1e+06	–	–	–
6G8 chimeric IgM (antibody, Heavy chain is mouse VH-CH1 plus human IgM mu chain CH2-4; also called 6G8 chimera; 6G8 (26394.1.a)) heavy: QVQLQQPGAELVKPGASVKLSCKASGYTFTRYWMYWVKQRPGRGLEWIGRLDPNSGVTKYNEKFKSKATLTVDKSSSTAYMQLSSLTSEDSAVYYCVRDDSWYFDVWGTGTTVTVSSAKTTPPSVYPLAPGSAAQTNSMVTLGCLVKGYFPEPVTVTWNSGSLSSGVHTFPAVLQSDLYTLSSSVTVPSSTWPSQTVTCNVAHPASSTKVDKKILPVIAELPPKVSVFVPPRDGFFGNPRKSKLICQATGFSPRQIQVSWLREGKQVGSGVTTDQVQAEAKESGPTTYKVTSTLTIKESDWLSQSMFTCRVDHRGLTFQQNASSMCVPDQDTAIRVFAIPPSFASIFLTKSTKLTCLVTDLTTYDSVTISWTRQNGEAVKTHTNISESHPNATFSAVGEASICEDDWNSGERFTCTVTHTDLPSPLKQTISRPKGVALHRPDVYLLPPAREQLNLRESATITCLVTGFSPADVFVQWMQRGQPLSPEKYVTSAPMPEPQAPGRYFAHSILTVSEEEWNTGETYTCVVAHEALPNRVTERTVDKSTGKPTLYNVSLVMSDTAGTCY light: EIQMTQSPSSMSASLGDRITITCQATQDIVKNLNWYQQKPGKPPSFLIYYATELAEGVPSRFSGSGSGSDYSLTINNLESQDFADYFCLQFYAFPLTFGAGTKLELRRADAAPTVSIFPPSSEQLTSGGASVVCFLNNFYPRDINVKWKIDGSERQNGVLNSWTDQDSKDSTYSMSSTLTLTKDEYERHNSYTCEATHKTSTSPIVKSFNRGEC	–	–	–	–	–	–	–	–	–	–	1.96	2.45e-05	1.25e+07
MAb 8C10 (mouse hybridoma monoclonal antibody) (antibody, Mouse IgG (gamma/kappa), tested as hybridoma culture supernatant; Signal peptides are positions 1-19 (heavy) and 1-20 (light); copies: 2 + 2) heavy: QVQLQQSGAELMKPGASVKLSCKAAGYTFTDYWIEWVKQRPGHGLEWIGEILPGSGSTKDNERFKGKATFTADTSSNTAYMQLSSLTTEDSAIYYCARREWGYYFDYWGQGTTLTVSSAKTTPPSVYPLAPGSAAQTNSMVTLGCLVKGYFPEPVTVTWNSGSLSSGVHTFPAVLQSDLYTLSSSVTVPSSTWPSQTVTCNVAHPASSTKVDKKIVPRDCGCKPCICTVPEVSSVFIFPPKPKDVLTITLTPKVTCVVVDISKDDPEVQFSWFVDDVEVHTAQTKPREEQINSTFRSVSELPIMHQDWLNGKEFKCRVNSAAFPAPIEKTISKTKGRPKAPQVYTIPPPKEQMAKDKVSLTCMITNFFPEDITVEWQWNGQPAENYKNTQPIMDTDGSYFVYSKLNVQKSNWEAGNTFTCSVLHEGLHNHHTEKSLSLSPGK light: DIVMTQSHKFMSTSVGDRVSITCKASQDVSTAVAWYQQKPGQSPKLLIYWASTRHTGVPDRFTGSGSGTDYTLTISSVQAEDLALYYCQQHYSTPYTFGGGTKLEIKRADAAPTVSIFPPSSEQLTSGGASVVCFLNNFYPRDINVKWKIDGSERQNGVLNSWTDQDSKDSTYSMSSTLTLTKDEYERHNSYTCEATHKTSTSPIVKSFNRGEC	1.2	1.3e-07	100000	< 1	< 1e-07	356000	1.2	< 1	< 1e-07	356000	–	–	–

Reference: patent US20200062832A1 (QUIDEL, published 2020)
